US6395548, “Methods of modulating of angiogenesis” (President and Fellows of Harvard College)

Tests used:
HIF-1alpha/ARNT4 = HIF-1alpha/ARNT4 (Homo sapiens, UniProt Q16665;Q8WYA1-5 Q16665:1-826,Q8WYA1-5:1-602); assay: EMSA; HIF-1 did not form dimers with ARNT4 and bind the site
EPAS1/ARNT4 heterodimer = EPAS1/ARNT4 heterodimer (Homo sapiens, UniProt Q99814;Q8WYA1-5 Q99814:1-870,Q8WYA1-5:1-602); assay: EMSA; probe described as HIF-1 site / hypoxia responsive element of VEGF
Sequence of EPAS1/ARNT4 heterodimer (Q99814 whole entry, chain 1 of 2): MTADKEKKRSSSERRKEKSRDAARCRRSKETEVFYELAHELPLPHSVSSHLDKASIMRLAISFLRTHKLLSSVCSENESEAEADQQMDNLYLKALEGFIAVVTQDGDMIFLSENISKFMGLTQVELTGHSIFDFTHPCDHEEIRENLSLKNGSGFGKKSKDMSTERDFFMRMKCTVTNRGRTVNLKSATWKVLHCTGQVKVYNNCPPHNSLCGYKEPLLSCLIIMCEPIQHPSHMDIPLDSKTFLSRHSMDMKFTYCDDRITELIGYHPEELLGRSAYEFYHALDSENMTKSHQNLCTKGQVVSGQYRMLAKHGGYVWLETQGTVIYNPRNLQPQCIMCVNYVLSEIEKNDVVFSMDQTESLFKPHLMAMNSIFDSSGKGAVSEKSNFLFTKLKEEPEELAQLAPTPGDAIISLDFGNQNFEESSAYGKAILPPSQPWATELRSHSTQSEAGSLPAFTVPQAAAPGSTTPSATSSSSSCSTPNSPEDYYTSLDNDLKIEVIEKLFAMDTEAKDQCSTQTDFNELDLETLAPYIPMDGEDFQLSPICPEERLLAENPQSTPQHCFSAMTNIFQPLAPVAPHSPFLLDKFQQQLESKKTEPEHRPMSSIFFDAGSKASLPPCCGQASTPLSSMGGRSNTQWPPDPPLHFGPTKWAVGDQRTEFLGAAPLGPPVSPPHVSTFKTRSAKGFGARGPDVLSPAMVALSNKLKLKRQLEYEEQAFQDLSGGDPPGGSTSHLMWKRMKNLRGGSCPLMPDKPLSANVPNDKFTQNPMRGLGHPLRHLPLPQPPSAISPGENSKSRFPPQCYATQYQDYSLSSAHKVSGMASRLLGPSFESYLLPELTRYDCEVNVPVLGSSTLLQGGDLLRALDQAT
Sequence of EPAS1/ARNT4 heterodimer (Q8WYA1 other isoform, or with tags, fused parts or gaps, chain 2 of 2): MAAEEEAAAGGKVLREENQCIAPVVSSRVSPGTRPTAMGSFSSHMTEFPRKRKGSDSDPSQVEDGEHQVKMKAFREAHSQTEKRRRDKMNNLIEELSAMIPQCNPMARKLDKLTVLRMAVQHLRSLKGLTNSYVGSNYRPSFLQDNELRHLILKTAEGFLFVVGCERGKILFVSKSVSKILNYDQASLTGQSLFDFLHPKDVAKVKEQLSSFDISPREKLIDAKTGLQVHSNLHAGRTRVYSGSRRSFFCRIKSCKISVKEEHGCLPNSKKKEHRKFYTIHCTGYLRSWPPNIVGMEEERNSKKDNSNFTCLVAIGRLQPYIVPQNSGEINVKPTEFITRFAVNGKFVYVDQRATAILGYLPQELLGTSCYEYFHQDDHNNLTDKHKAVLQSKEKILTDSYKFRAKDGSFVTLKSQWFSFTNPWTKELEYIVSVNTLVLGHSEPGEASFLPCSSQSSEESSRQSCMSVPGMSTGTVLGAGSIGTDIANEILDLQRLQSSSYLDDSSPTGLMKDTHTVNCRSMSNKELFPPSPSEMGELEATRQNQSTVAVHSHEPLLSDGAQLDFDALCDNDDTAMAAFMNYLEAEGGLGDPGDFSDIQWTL

Sequence of HIF-1alpha/ARNT4 (Q16665 whole entry, chain 1 of 2): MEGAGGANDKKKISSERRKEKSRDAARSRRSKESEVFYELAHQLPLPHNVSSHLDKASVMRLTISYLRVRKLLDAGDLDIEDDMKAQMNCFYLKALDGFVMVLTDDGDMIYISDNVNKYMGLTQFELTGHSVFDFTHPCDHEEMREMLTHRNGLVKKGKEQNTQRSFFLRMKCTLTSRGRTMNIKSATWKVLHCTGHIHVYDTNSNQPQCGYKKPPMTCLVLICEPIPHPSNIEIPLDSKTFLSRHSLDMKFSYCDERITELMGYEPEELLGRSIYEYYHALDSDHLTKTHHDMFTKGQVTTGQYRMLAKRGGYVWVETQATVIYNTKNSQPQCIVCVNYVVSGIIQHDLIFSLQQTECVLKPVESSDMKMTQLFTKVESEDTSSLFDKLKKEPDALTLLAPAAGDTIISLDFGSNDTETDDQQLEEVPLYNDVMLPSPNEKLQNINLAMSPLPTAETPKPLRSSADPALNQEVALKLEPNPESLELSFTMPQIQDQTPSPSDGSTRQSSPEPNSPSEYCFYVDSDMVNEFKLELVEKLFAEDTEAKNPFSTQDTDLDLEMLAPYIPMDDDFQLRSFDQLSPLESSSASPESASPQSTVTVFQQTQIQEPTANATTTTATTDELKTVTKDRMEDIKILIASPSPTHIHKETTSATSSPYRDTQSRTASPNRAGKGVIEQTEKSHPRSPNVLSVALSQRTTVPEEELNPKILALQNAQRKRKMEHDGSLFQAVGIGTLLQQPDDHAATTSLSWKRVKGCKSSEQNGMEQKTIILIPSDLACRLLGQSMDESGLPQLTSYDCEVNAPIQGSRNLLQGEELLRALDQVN
Sequence of HIF-1alpha/ARNT4 (Q8WYA1 other isoform, or with tags, fused parts or gaps, chain 2 of 2): as the sequence (Q8WYA1 other isoform, or with tags, fused parts or gaps, chain 2 of 2) above

B1: VEGF promoter HIF-1 binding site / hypoxia responsive element (dsDNA)
DNA 1: GCCCTACGTGCTGTCTCA
DNA 2: TGAGACAGCACGTAGGGC
- binding result (HIF-1alpha/ARNT4): no binding
- binding result (EPAS1/ARNT4 heterodimer): binds
